This note sets out measurements from patent publication US20070203188, “Low molecular weight Myc-Max inhibitors” (University of Pittsburgh, published 2007).

This series has as its target c-Myc353-439 (bHLH-LZ)/Max(S) heterodimer (Homo sapiens, UniProt P01106;P61244-2 P01106:368-454,P61244-2:1-151). Put plainly: EMSA; 60 nM each protein, 10 nM DNA; 1xPBS pH 7.3, 1 mM EDTA, 0.1% NP40, 5% glycerol, 1 mM DTT, 0.4 mg/mL BSA, 25 C; binding inhibited dose-dependently by 10058-F4 and analogs. The note with it: tags: c-Myc: His6 cleaved by TEV, GGCD C-terminal extension, label: 5'-HEX on one strand. The procedure: Electrophoretic mobility shift Assays (EMSAs). Experiments were performed on 8% polyacrylamide:bis-acrylamide (80:1) gels in 0.5×TBE. Binding reactions were prepared in a buffer consisting of 1×PBS (pH 7.3); 1 mM EDTA; 0.1% NP40; 5% glycerol; 1 mM dithiothreitol; and 0.4 mg/mL BSA. A 22 base-pair E-box-containing double-stranded DNA oligonucleotide labeled on one strand with hexachlorofluoresceine (HEX) consisted of the following sequence:
The second method used to gauge the effects of 10058-F4 and its analogs on c-Myc-Max complexes relied on the use of a simple, three component electrophoretic mobility shift assay (EMSA). For this purpose, a recombinant c-Myc peptide, which encompasses the bHLH-LZ domain (c-_{Myc353-439}), together with the full-length His₆-tagged 151 amino acid isoform of Max [designated Max(S)] (Zhang H, et al. J Biol Chem 1997; 272; 17416-24 and Prochownik E V, et al. Proc Natl Acad Sci USA 1993; 90:960-4) were incubated in increasing concentrations of each relevant compound. The ability of the resultant heterodimer to bind a double-stranded target oligonucleotide containing a consensus E-box motif was then assessed by PAGE. […]

c-Myc353-439 (bHLH-LZ)/Max(S) heterodimer, sequence (P01106 368-454, chain 1 of 2): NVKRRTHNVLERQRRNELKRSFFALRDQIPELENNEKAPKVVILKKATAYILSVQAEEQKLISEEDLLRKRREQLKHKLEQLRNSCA
c-Myc353-439 (bHLH-LZ)/Max(S) heterodimer, sequence (P61244 other isoform, or with tags, fused parts or gaps, chain 2 of 2): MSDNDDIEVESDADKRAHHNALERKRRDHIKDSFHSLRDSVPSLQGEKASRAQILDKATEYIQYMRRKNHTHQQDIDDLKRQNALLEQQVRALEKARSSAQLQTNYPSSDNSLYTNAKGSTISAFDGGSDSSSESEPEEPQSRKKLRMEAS

B1: E-box 22-mer duplex (dsDNA)
DNA 1: CACCCGGTCACGTGGCCTACAC
DNA 2: GTGTAGGCCACGTGACCGGGTG
For B1, the binding result was “binds”.
